One may read the pKd as the negative decadic logarithm of the Kd, by convention in mol/L. The term pIC50 denotes −log10 of the IC50, conventionally taken in molar units.

For experiment [1], the target named is CD11b/CD18 on human neutrophils (human) (UniProt P05107). The experiment is described as follows: time course of biotinylated NIF binding to neutrophils at 4 C, FACS.
The target is the same in experiment [2]. The experiment is described as follows: dissociation of biotinylated rNIF from washed neutrophils at 4 C, FACS.
Experiment [3] has as its target recombinant CD11b A domain (human) (UniProt P11215). The experiment is described as follows: Scatchard analysis of biotinylated rNIF binding to immobilized rA-domain.
In experiment [4] the target is CD11b/CD18 on human neutrophils (human) (UniProt P05107). As to the kind of experiment: biotinylated rNIF on f-met-leu-phe activated against resting neutrophils, FACS.
The target in experiment [5] is recombinant human CD11b/CD18 expressed in COS cells (human) (UniProt P05107). As to the kind of experiment: rNIF against EAiC3b binding to recombinant CD11b/CD18 on COS cells, fluorescence.
For experiment [6], the target named is CD11b/CD18 on human neutrophils (human) (UniProt P05107). As to the kind of experiment: Scatchard plot, biotinylated rNIF on resting or activated neutrophils at 4 C, FACS.
For experiment [7], the target named is complement iC3b on erythrocytes (EAiC3b) (human) (UniProt P01024). The experiment is described as follows: fluid-phase rA-domain against EAiC3b binding to immobilized rA-domain.
Experiment [8] deals with recombinant Ancylostoma caninum neutrophil adhesion inhibitor (NIF) (Ancylostoma caninum). The experiment is described as follows: competition: fluid-phase r11bA against biotinylated rNIF binding to human neutrophils, FACS.
For experiment [9] the target is unchanged. As to the kind of experiment: competition: fluid-phase r11bA against biotinylated rNIF binding to immobilized r11bA, plate assay.

pIC50, pKd: −log10 of the molar value.

Chain of complement iC3b on erythrocytes (EAiC3b) (human) (P01024 23-667 limits assumed, chain 1 of 3): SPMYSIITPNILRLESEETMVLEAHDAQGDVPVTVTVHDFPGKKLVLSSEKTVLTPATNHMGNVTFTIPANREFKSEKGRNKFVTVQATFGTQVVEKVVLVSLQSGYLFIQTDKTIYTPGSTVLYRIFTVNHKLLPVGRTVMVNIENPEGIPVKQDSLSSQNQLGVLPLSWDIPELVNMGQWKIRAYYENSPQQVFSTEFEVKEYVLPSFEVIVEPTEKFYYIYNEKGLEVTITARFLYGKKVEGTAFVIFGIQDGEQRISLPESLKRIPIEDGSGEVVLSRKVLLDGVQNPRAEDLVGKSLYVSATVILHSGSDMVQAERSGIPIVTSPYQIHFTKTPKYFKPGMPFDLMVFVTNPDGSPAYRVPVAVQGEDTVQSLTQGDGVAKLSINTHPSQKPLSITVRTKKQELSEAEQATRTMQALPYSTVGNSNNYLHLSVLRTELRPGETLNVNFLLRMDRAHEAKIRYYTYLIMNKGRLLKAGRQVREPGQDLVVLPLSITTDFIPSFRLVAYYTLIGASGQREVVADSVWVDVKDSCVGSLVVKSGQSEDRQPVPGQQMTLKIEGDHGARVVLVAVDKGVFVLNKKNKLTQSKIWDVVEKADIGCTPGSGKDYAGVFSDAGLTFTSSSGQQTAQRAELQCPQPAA
Chain of complement iC3b on erythrocytes (EAiC3b) (human) (P01024 749-1303 limits assumed, chain 2 of 3): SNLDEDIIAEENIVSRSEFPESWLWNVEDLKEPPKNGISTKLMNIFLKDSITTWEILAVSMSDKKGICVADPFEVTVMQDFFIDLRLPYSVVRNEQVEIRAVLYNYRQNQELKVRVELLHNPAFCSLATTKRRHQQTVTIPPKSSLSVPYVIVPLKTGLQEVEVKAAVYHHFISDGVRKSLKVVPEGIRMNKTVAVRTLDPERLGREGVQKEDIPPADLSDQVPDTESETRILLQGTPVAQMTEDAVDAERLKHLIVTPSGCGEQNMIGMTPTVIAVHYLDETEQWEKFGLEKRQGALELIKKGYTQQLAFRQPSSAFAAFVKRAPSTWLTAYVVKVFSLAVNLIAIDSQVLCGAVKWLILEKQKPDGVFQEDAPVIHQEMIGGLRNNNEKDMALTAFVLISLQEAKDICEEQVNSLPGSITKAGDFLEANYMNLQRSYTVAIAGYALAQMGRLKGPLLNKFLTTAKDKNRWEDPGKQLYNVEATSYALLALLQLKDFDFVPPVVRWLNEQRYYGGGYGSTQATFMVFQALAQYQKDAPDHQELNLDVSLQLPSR
Chain of complement iC3b on erythrocytes (EAiC3b) (human) (P01024 1321-1663 limits assumed, chain 3 of 3): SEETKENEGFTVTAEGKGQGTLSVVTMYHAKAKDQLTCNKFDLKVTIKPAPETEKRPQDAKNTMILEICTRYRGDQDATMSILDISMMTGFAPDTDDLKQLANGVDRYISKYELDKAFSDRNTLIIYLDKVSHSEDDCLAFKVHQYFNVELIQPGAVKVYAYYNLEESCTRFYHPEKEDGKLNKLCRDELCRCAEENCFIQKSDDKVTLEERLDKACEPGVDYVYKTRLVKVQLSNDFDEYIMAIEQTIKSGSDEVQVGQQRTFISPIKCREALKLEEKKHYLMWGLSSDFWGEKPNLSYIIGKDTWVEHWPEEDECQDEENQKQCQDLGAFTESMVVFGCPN

In the case of “recombinant Ancylostoma caninum neutrophil adhesion inhibitor (NIF) (ligand)”, the t1/2 of association in experiment [1] came out at 0.25 h. The substance also registered a t1/2 of dissociation in experiment [2] of 7.6 h. Besides, the negative logarithm of the Kd (pKd) in experiment [3] was 9.00. This substance also showed a fold increase in NIF binding to activated vs resting cells in experiment [4] of 12 fold. Besides, in [5], the pIC50 was 8.30 and the concentration for complete inhibition was 3 mg/mL. This substance gave a negative logarithm of the Kd (pKd) in experiment [6] of 8.89 to 9.46.

Regarding “recombinant CD11b A domain (from UniProt P11215 144-337) (receptor)”, the results for the negative-log IC50 (pIC50) in [7], in experiment [8] and in [9] were 3.00, 9.00 and 9.00, respectively.

The values above are taken from patent US20050227296A1, “Method for indentifying integrin antagonists” (The General Hospital Corporation, a Massachusetts …, priority 1988, published 2005).
